Molecular target: 4-1BB-mFc (UniProt Q07011 24-186)
Experiment: SPR (Biacore), multi-cycle kinetics, antibody captured by anti-human IgG on CM5 chip, 4-1BB antigen as analyte

Kd | koff | kon | Binder
0.338 nM | 0.000204 s⁻¹ | 602000 M⁻¹ s⁻¹ | hu10B2 (人源化4-1BB抗体) (antibody, V domains shown, The antibody was captured with anti-human IgG in SPR; also called 4-1BB(hu10B2); hu10B2 4-1BB抗体) VH: QVQLVESGGGVVQPGRSLRLSCAASGFTFSTFGLHWVRQAPGKGLEWVAYISSDSNTIYYADTMKGRFTISRDNSKNTLYLQMNSLRAEDTAVYYCTRGDPAYYGYGGRFVYALDFWGQGTLVTVSS VL: DVVVTQTPLSLSVTPGQPASISCRSSQSLTNSYGHTYLSWYLQKPGQSPQLLIYGISIRFSGVPDRFSGSGSGTDFTLKISRVEAEDVGVYYCLQGTHQPWTFGGGTKVEIK
0.423 nM | 0.000122 s⁻¹ | 289000 M⁻¹ s⁻¹ | hu6F9B1A6/hu10B2-scFv双功能抗体 (人源化PD-L1/4-1BB双功能抗体) (bispecific antibody, human IgG4 S228P, F234A L235A, also called hu6F9B1A6/4-1BB; hu6F9B1A6-10B2-CC) heavy: QVQLVQSGAEVKKPGSSVKVSCKASGYTFIGYTVHWVRQAPGQGLEWIGWIYPGSGSIKYNEKFKDRATLTADKSTSTVYMELSSLRSEDTAVYYCARHGTGKFNYFDVWGQGTTVTVSSASTKGPSVFPLAPCSRSTSESTAALGCLVKDYFPEPVTVSWNSGALTSGVHTFPAVLQSSGLYSLSSVVTVPSSSLGTKTYTCNVDHKPSNTKVDKRVESKYGPPCPPCPAPEAAGGPSVFLFPPKPKDTLMISRTPEVTCVVVDVSQEDPEVQFNWYVDGVEVHNAKTKPREEQFNSTYRVVSVLTVLHQDWLNGKEYKCKVSNKGLPSSIEKTISKAKGQPREPQVYTLPPSQEEMTKNQVSLTCLVKGFYPSDIAVEWESNGQPENNYKTTPPVLDSDGSFFLYSRLTVDKSRWQEGNVFSCSVMHEALHNHYTQKSLSLSPGKGGGGSGGGGSDVVVTQTPLSLSVTPGQPASISCRSSQSLTNSYGHTYLSWYLQKPGQSPQLLIYGISIRFSGVPDRFSGSGSGTDFTLKISRVEAEDVGVYYCLQGTHQPWTFGGGTKVEIKGGGGSGGGGSGGGGSQVQLVESGGGVVQPGRSLRLSCAASGFTFSTFGLHWVRQAPGKGLEWVAYISSDSNTIYYADTMKGRFTISRDNSKNTLYLQMNSLRAEDTAVYYCTRGDPAYYGYGGRFVYALDFWGQGTLVTVSS VL: DIQLTQSPSFLSASVGDRVTITCRASSTVNYMHWYQQKPGKAPKPWIYATFNLASGVPSRFSGSGSGTEYTLTISSLQPEDFATYYCQTWSSYPLTFGQGTKLEIK

Source: patent CN114736303A (YINGNUO LAKE MEDICINE HANGZHOU CO LTD, dated 2022)
